Measurements: patent US12415847B2, “ApoM-Fc fusion proteins for treating lung diseases” (Children's Medical Center Corporation, priority 2018, dated 2025)

Tests used:
HUVECs = assay: Trans-endothelial electrical resistance (TEER); type: cell-based, human; conditions: 4 μg/well, 250 nM S1P, 6 hour time point
Procedure: FIG. 4. Human and Mouse ApoM-Fc-S1P enhanced endothelial Barrier Protection. Human ApoMFc-S1P (4 μg/well, 250 nM S1P), Mouse ApoMFc-S1P (4 μg/well, 250 nM S1P), or BSA-S1P (250 nM S1P; Positive Control) were analyzed using transepithelial/transendothelial electrical resistance (TEER). The results of TEER analysis of HUVECs at the 6 hour time point are shown. BSA-S1P is the well-established activator of the S1PR1 and it was tested whether Human ApoMFc-S1P, Mouse ApoMFc-S1P gave equivalent induction of receptor activation. All results are normalized to individual well baselines (baseline=1), expressed as the mean of triplicate wells, and Standard Deviation (S.D.) is expressed as gray vertical bars over the course of the data set. […]
0.1 ml of Human Umbilical Vascular Endothelial Cells (HUVECS; 200,000 cells/ml in EGM-2 culture medium, Lonza) were seeded into a 96 well electrical conductance chamber (ECIS Cultureware; Applied Biophysics, Inc) pre-coated with 1% Fibronectin resuspended in Saline. After overnight incubation at 37° C./5% CO2, the 96-well plate was placed on the ECIS reader (Applied Biophysics; Ztheta 96-well array station) and baseline resistance was established which represents the quality of Endothelial junction strength or Endothelial barrier function. […]

S1P1 receptor [1] = molecular target: T1, S1P1 receptor (Homo sapiens, UniProt P21453); assay: Nanobit split luciferase assay, Gi-alpha coupling; type: cell-based; conditions: transfected 293A cells; 1000 nM-0.3 nM S1P
T1 construct: expressed in transfected cells; host or cells: Human 293A cells, transient PEI transfection
Procedure: (§1) FIGS. 5A-5B. Nanobit analysis of Human ApoMFc-S1P, Mouse ApoMFc-S1P, or BSA-S1P (Positive Control). […] BSA-S1P is the well-established activator of the S1PR1 and it was tested whether Human ApoMFc-S1P, Mouse ApoMFc-S1P gave equivalent induction of receptor activation. Data are the means of triplicate wells with the baseline (pre-stimulation) signal subtracted from the final luciferase signal and graphs are expressed with standard deviation.
(§2) The S1P receptors are members of the G-protein coupled receptor (GPCR) superfamily. Receptor activation is characterized by immediate activation of a G-protein complex (alpha-beta-gamma) that activates multiple intracellular signaling pathways and then secondary activation of coupling to the protein beta-arrestin, which may cause receptor internalization and desensitization as well as activation of other intracellular signaling pathways. […]
(§3) There are two general forms of this assay. […] Upon activation of the GPCR, the G-Protein alpha-beta-gamma complex […] and Luciferase activity may be detected by measuring emitted light in the presence of luciferase substrate (luciferin). […] It is notable that G-Protein assay results in decreased relative fluorescence with increased receptor activation, while the Beta-arrestin coupling assay results in increased relative fluorescence with increased receptor activation. […]
Target sequence in this assay (P21453 whole entry): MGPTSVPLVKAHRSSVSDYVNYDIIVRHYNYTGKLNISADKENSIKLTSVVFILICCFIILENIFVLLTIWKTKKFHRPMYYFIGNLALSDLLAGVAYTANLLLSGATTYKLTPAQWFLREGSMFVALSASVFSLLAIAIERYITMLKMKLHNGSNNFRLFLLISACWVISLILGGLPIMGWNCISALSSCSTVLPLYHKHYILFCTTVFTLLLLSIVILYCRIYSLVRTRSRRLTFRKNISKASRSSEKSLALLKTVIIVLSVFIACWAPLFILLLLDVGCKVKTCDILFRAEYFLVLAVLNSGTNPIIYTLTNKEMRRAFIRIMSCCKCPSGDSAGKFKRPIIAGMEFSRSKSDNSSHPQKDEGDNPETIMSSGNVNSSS

S1P1 receptor [2] = molecular target: T1, S1P1 receptor; assay: Nanobit split luciferase assay, beta-arrestin coupling; type: cell-based; conditions: transfected 293A cells; 1000 nM-0.3 nM S1P
Procedure: as §1, §2, §3
Target sequence in this assay (P21453 whole entry): as above
Target sequence in this assay (P49407 whole entry partner): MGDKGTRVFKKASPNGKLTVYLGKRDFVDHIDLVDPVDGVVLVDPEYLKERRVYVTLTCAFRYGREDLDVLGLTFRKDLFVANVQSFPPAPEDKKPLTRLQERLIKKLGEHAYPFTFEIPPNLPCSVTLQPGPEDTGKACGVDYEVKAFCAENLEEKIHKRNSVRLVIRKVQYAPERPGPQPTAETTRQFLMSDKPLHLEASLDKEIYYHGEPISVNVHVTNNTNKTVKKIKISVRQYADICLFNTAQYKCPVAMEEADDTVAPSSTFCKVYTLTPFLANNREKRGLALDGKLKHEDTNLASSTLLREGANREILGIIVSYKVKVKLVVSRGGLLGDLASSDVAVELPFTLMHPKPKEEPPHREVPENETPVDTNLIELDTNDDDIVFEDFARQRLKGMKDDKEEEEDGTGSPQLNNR

Q: “Human ApoMFc-S1P: Human ApoM-Human IgG1 Fc (hApoM-Fc) loaded with S1P” was tested. Which “endothelial barrier protection (TEER)” value (HUVECs) did it give?
A: The value was “enhance endothelial Barrier Protection”.

Q: What about the “activation of Gi-alpha coupling to the S1P1 receptor” value (S1P1 receptor [1]) of the same substance?
A: The value was “equivalently activates”.

Q: And the “activation of beta-arrestin coupling to the S1P1 receptor” value (S1P1 receptor [2])?
A: Its value is “equivalently activates”.
